This is an account of results in article PMC12499469.

For this assay, the target named is GRB2 (human (cDNA from 293T or brain glioma cells)), P62993. Briefly: molecular recruitment colocalization (MRC), live-cell fluorescence imaging; bait fused to scFv and a fluorescent protein, recruited by dCas9-10xGCN4 (SunTag) and sgRNA MUC4-272kb to a repeated genomic locus in SunTag10x-dCas9-HEK293T cells; preys fused to mCherry or mTagBFP2 with NLS; colocalized spots imaged 24 h after transfection, 37 °C. As to conditions: remark: other sources report otherwise.
Sequence of GRB2 (human (cDNA from 293T or brain glioma cells)), P62993 (P62993 whole entry, the tested form may be a part): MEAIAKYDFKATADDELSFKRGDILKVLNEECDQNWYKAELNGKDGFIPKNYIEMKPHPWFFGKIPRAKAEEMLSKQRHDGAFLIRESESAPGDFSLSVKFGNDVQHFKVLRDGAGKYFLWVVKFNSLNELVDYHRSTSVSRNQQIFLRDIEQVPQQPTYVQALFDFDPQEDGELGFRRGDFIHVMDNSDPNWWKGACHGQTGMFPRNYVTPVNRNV

B1: SOS1, Q07889 1-1333 (natural protein)
chain: MQAQQLPYEFFSEENAPKWRGLLVPALKKVQGQVHPTLESNDDALQYVEELILQLLNMLCQAQPRSASDVEERVQKSFPHPIDKWAIADAQSAIEKRKRRNPLSLPVEKIHPLLKEVLGYKIDHQVSVYIVAVLEYISADILKLVGNYVRNIRHYEITKQDIKVAMCADKVLMDMFHQDVEDINILSLTDEEPSTSGEQTYYDLVKAFMAEIRQYIRELNLIIKVFREPFVSNSKLFSANDVENIFSRIVDIHELSVKLLGHIEDTVEMTDEGSPHPLVGSCFEDLAEELAFDPYESYARDILRPGFHDRFLSQLSKPGAALYLQSIGEGFKEAVQYVLPRLLLAPVYHCLHYFELLKQLEEKSEDQEDKECLKQAITALLNVQSGMEKICSKSLAKRRLSESACRFYSQQMKGKQLAIKKMNEIQKNIDGWEGKDIGQCCNEFIMEGTLTRVGAKHERHIFLFDGLMICCKSNHGQPRLPGASNAEYRLKEKFFMRKVQINDKDDTNEYKHAFEIILKDENSVIFSAKSAEEKNNWMAALISLQYRSTLERMLDVTMLQEEKEEQMRLPSADVYRFAEPDSEENIIFEENMQPKAGIPIIKAGTVIKLIERLTYHMYADPNFVRTFLTTYRSFCKPQELLSLIIERFEIPEPEPTEADRIAIENGDQPLSAELKRFRKEYIQPVQLRVLNVCRHWVEHHFYDFERDAYLLQRMEEFIGTVRGKAMKKWVESITKIIQRKKIARDNGPGHNITFQSSPPTVEWHISRPGHIETFDLLTLHPIEIARQLTLLESDLYRAVQPSELVGSVWTKEDKEINSPNLLKMIRHTTNLTLWFEKCIVETENLEERVAVVSRIIEILQVFQELNNFNGVLEVVSAMNSSPVYRLDHTFEQIPSRQKKILEEAHELSEDHYKKYLAKLRSINPPCVPFFGIYLTNILKTEEGNPEVLKRHGKELINFSKRRKVAEITGEIQQYQNQPYCLRVESDIKRFFENLNPMGNSMEKEFTDYLFNKSLEIEPRNPKPLPRFPKKYSYPLKSPGVRPSNPRPGTMRHPTPLQQEPRKISYSRIPESETESTASAPNSPRTPLTPPPASGASSTTDVCSVFDSDHSSPFHSSNDTVFIQVTLPHGPRSASVSSISLTKGTDEVPVPPPVPPRRRPESAPAESSPSKIMSKHLDSPPAIPPRQPTSKAYSPRYSISDRTSISDPPESPPLLPPREPVRTPDVFSSSPLHLQPPPLGKKSDHGNAFFPNSPSPFTPPPPQTPSPHGTRRHLPSPPLTQEVDLHSIAGPPVPPRQSTSQHIPKLPPKTYKREHTHPSMHRDGPPLLENAHSS
B1: the SNR ratio (GRB2/SOS1 puncta) is 1.46.
